Patent publication US20240307509A1, “PLACENTAL ALKALINE PHOSPHATASE FOR STARTING EARLY TREATMENT OF CANCER PATIENTS EXHIBITING NO DETECTABLE LOSS OF BODY AND MUSCLE WEIGHT AS YET TO PREVENT OR REDUCE THE LOSS OF MUSCLE PROTEINS” (MNPHARM SBC, priority 2021, published 2024)
Several values for one entry are separate records, joined by “and”; a condition that tells them apart may be missing. Identical values can stand only once.

How the values were obtained:
[1] = system: T47D human breast cancer tumor; test: Skeletal muscle proteins in the Cyp treated human T47D tumor model; format: in vivo, mice; conditions: gastrocnemius, day 28; PLAP 7.5 mg per kg subcutaneously days 14, 17, 20, 23, 26; Cyp intraperitoneally days 15-27 every second day
Procedure: PLAP and Cyp were dissolved in 0.9% sodium chloride and applied subcutaneously (PLAP) or intraperitoneally (Cyp) in […] volume. […] In the fourth and fifth groups mice also received Cyp on days 15, 17, 19, 21, 23, 25, and 27. On day 28, body weights were measured first followed by determining the tumor volumes. After the mice were put to death under anesthesia, the gastrocnemius muscles were excised to determine total proteins by using a Sigma kit.

[2] = system: T47D human estrogen receptor positive breast carcinoma; test: Tumor growth and survival of Cyp treated mice bearing T47D breast carcinoma; format: in vivo
Procedure: T47D estrogen receptor positive human breast cancer cells were from American Tissue Culture Collection (10801 University Boulevard, Manassas, Virginia, 20110-2209, United States).
First generation hybrid BDF1 (C57BL female x DBA/2 male) 6 weeks old, weighing 22-23 grams, specified pathogen free (SPF) hygienic category colonies were used. The animals were kept in macrolon cage at 22-24 0 C° (45-55% humidity), with a lightning regimen of 12/12 h light/dark. The animals had free access to tap water and were fed with a sterilized standard diet (Charles River VRF1, autoclavable, Germany) ad libitum.
T47D mammary tumor pieces (maintained in mouse tail, containing about 1.5×10^6 tumor cells) were implanted subcutaneously into the intrascapular region to develop the tumors. After 15 days, when the tumor-bearing mice were first treated, the sizes of the tumors were in the 0.27-0.34 cm^3 range. PLAP and Cyp were dissolved in 0.9% sodium chloride and applied subcutaneously (PLAP) or intraperitoneally (Cyp) in 50 μl volume. In the first group (n=7), animals received no treatment. In the second group (n=7), mice were administered 120-mg/kg of Cyp on day 15 followed by eleven consecutive treatments on every second day (days 17, 19, 21, 23, 25, 27, 29, 31, 35, 37, and 39) with the same dose. In the third group (n=7), treatment with Cyp (on the same days as in group 2) was accompanied by administration of 7.5 mg per kg of PLAP on days 15, 20, 25, 30, 35, and 40. Tumor volume was measured on days 15, 18, 21, 24, 27, 31, 35, 40, and 46, and body weight was measured on day 46. Then the animals were kept without additional treatment to determine survival rates.

L6 myoblasts [3] = test: Proliferation of L6 myoblasts with or without IGF-1 (MTT assay); format: cell-based; conditions: serum-free medium, 72 hours; IGF-1 50 nM, rPLAP 150 nM, PLAP 150 nM
Procedure: L6 myoblasts were grown in 96-well plates in 10% FBS containing DMEM up to 30% confluency. Then the medium was changed to serum-free medium, and after 2 hours, cells were treated with IGF-1 (50 nM), or rPLAP (150 nM), or PLAP (150 nM) in the absence or presence of IGF-1 for 72 hours, followed by the MTT assay (absorbance; A540) as described by others assay [Carmichael, J, De Graff, W.G., Gazdar, A.F., Minna, J.D. and Mitchell, J.B. Evaluation of tetrazolium-based semiautomated colorimetric assay: Assessment of chemosensitivity testing. Cancer Res. 47, 936-942, 1987].

L6 myoblasts [4] = test: Proliferation of L6 myoblasts in the presence of myostatin (MTT assay); format: cell-based; conditions: 96 hours
Procedure: In this experiment, L6 myoblasts were seeded in 10% serum containing Dulbecco's modified Eagles (DMEM) medium in 96-well plates (n=8 for each treatment). After 24 hours at 30% confluence, the medium was changed to 2% serum-containing medium (0 time) and then treated with 0.25 μg/ml or 1 ug/ml myostatin (MSTN-from the R&D Systems-catalog no. 788-GB-010) in the absence or presence of 25 nM, 100 nM, or 200 nM PLAP for 96 hours. The relative number of viable cells (A540) was determined by the MTT assay [Carmichael, J, De Graff, W.G., Gazdar, A.F., Minna, J.D. and Mitchell, J.B. Evaluation of tetrazolium-based semiautomated colorimetric assay: Assessment of chemosensitivity testing. Cancer Res. 47, 936-942, 1987]. The value measured at 0 time is subtracted from the 96-hour values.

[5] = system: PC-3 human prostate adenocarcinoma tumor; test: Subcutaneously administered PLAP in the cachectic PC-3 mouse tumor model; format: in vivo, mice; conditions: day 28
From the text: PC-3 human prostate cancer cell-derived aggressive tumors are cachectic depending on the mouse strain used for tumor development. In the following experiment, a cachectic mouse model of human prostate tumor was used.
PC-3 human prostate adenocarcinoma tissue pieces (0.1 cm^3 volume) were implanted subcutaneously into the intrascapular region of 6 weeks old female mice [homozygous line of C.B .-171cr scid/scid] to develop the tumors. The mice were kept at specified pathogen free (SPF) hygienic levels. In the first group of mice (7 mice), no tumors were developed (tumor free control). In the second group of mice (7 mice), tumors were developed but remained untreated. In the third group of mice (7 mice), on days 8, 11, 14, 17, 21 and 25 after transplantation of PC-3 tumors, mice were administered 4 mg/kg of PLAP subcutaneously. The weight and total protein content of m. gastrocnemius (using a protein determination kit from Sigma), tumor weight, lean body weight (total weight minus tumor weight), and the weight of abdominal fat tissue were determined on day 28 (after tumor transplantation).

[6] = purified PLAP, literature (Clubb et al. 1965); cited from earlier work
[7] = ATP as substrate of alkaline phosphatases (unpublished data); format: biochemical; conditions: compared to IALP or TNAP
From the text: This invention can also use an alkaline phosphatase (AP) which is a hybrid derivative of two APs. For example, in such a hybrid one critical segment may originate from PLAP accounting for the heat stability, and another segment may originate from a different AP accounting for a higher catalytic phosphatase activity or another useful property. As an example, envisioned in the disclosure, such hybrid may contain up to roughly 50% of the sequence of PLAP providing stability, and up to roughly 50% of the sequence of another human AP providing the catalytic alkaline phosphatase activity. The rationale for using such hybrid is that of the APs, PLAP has by far the greatest stability in the circulation, while other APs may have greater catalytic activities towards some specific substrates.

[8] = Spectrophotometric assay of PLAP enzyme activity; format: biochemical; conditions: 10 mM 4-nitrophenylphosphate, 22° C., pH 9.8; 1 U = 1 umole substrate hydrolyzed/min
Procedure: PLAP as determined by sodium dodecyl sulfate-polyacrylamide gel electrophoresis (SDS-PAGE). The enzyme activity of PLAP was assayed using a spectroscopic method to monitor the hydrolysis of 4-nitrophenylphosphate (as an increase in absorbance at 410 nm) at room temperature (22° C.) as described in [Chang, G.-G., Shiao, M.-S., Lec, K.-R. and Wu, J.-J., Modification of human placental alkaline phosphatase by periodate-oxidized 1,N6-ethenoadenosine monophosphate. Biochem. J., 272, 683-690, 1990]. Activity analysis of 5-10-μg purified enzyme was performed in 1 mI. incubation volume containing 50 mM Na2CO3/NaHCO3, 10 mM MgCl2, 10 mM 4-nitrophenylphosphate at pII 9.8. The extinction coefficient of 4-nitrophenol was taken as 1.62×10^4 M^−1 cm^−1. An enzyme activity of I U (unit) is defined as 1 umole substrate hydrolyzed/min at 22° C. at pH 9.8. The pure PLAP was further identified by sequence analysis performed by the Mayo Clinic Protein Core Facility (Rochester, MN, US). The specific activity of purified PLAP was 685 Units per mg protein.

[9] = Cyp 120 mg/kg intraperitoneally, PLAP 7.5 mg/kg subcutaneously
[10] = numbers in parentheses, n=7 per group
[11] = m. gastrocnemius, PLAP 4 mg/kg subcutaneously on days 8, 11, 14, 17, 21, 25

O.O=P1(N(CCCl)CCCl)NCCCO1 (centres unmarked) [Cyp, 2-[Bis (2-chloroethyl)amino] tetrahydro-2H-1,3,2-oxazaphosphorine 2-oxide monohydrate]
Total Muscle Protein [1]: 11.31 ± 0.43 mg per 100 mg of muscle weight | Tumor volume Day 18 ([2]; Cyp 120 mg/kg intraperitoneally every second day from day 15, PLAP 7.5 mg/kg subcutaneously every 5 days): 0.33 ± 0.11 cm^3 | Tumor volume Day 21 [2, 9]: 0.56 ± 0.10 cm^3 | Tumor volume Day 24 [2, 9]: 0.72 ± 0.20 cm^3 | Tumor volume Day 27 [2, 9]: 0.91 ± 0.22 cm^3 | Tumor volume Day 31 [2, 9]: 1.06 ± 0.17 cm^3 | Tumor volume Day 35 [2, 9]: 1.22 ± 0.32 cm^3 | Tumor volume Day 40 [2, 9]: 1.68 ± 0.29 cm^3 | Tumor volume Day 46 [2, 9]: 1.82 ± 0.24 cm^3 | Survival Mean ([2]; T47D tumor bearing animals, n=7, monohydrate): 49 days and 49.3 days | body weight less compared to the untreated group ([2]; body weight measured on day 46): 1.4% | Tumor volume Day 15 ([2]; day of first treatment, Cyp 120 mg/kg intraperitoneally, PLAP 7.5 mg/kg subcutaneously): 0.30 ± 0.11 cm^3 | number of mice alive Day 35 [2, 10]: 7 | number of mice alive Day 40 [2, 10]: 7 | number of mice alive Day 46 [2, 10]: 5 | Survival % ([2]; relative to untreated (None = 100)): 129%

IGF-1: insulin like growth factor-1 [reference compound]
L6 myoblast proliferation (A540) (minus 0-time value) (L6 myoblasts [3]): 0.280 ± 0.030 A540

Myostatin: myostatin (MSTN) from R&D Systems, catalog no. 788-GB-010 [reference compound]
L6 myoblast proliferation minus 0-time value (A540) (L6 myoblasts [4]; Myostatin 0.25 μg/ml, no PLAP, 2% serum): 0.214 ± 0.032 A540 | L6 myoblast proliferation minus 0-time value (A540) (L6 myoblasts [4]; Myostatin 1.0 μg/ml, no PLAP, 2% serum): 0.175 ± 0.030 A540

B1: PLAP: highly purified native placental alkaline phosphatase derived from human placenta via conventional purification methods (protein, UniProt P05187 23-506, looked up)
Alkaline phosphatase, …: IIPVEEENPDFWNREAAEALGAAKKLQPAQTAAKNLIIFLGDGMGVSTVTAARILKGQKKDKLGPEIPLAMDRFPYVALSKTYNVDKHVPDSGATATAYLCGVKGNFQTIGLSAAARFNQCNTTRGNEVISVMNRAKKAGKSVGVVTTTRVQHASPAGTYAHTVNRNWYSDADVPASARQEGCQDIATQLISNMDIDVILGGGRKYMFRMGTPDPEYPDDYSQGGTRLDGKNLVQEWLAKRQGARYVWNRTELMQASLDPSVTHLMGLFEPGDMKYEIHRDSTLDPSLMEMTEAALRLLSRNPRGFFLFVEGGRIDHGHHESRAYRALTETIMFDDAIERAGQLTSEEDTLSLVTADHSHVFSFGGYPLRGSSIFGLAPGKARDRKAYTVLLYGNGPGYVLKDGARPDVTESESGSPEYRQQSAVPLDEETHAGEDVAVFARGPQAHLVHGVQEQTFIAHVMAFAACLEPYTACDLAPPAGTTD
inhibition of tumor growth ([5]; PLAP 4 mg/kg subcutaneously): 32% | loss of lean body weight ([5]; PLAP treated tumor (41% in untreated)): 18% | loss of abdominal fat tissue ([5]; PLAP treated tumor (46% in untreated)): 12% | Tumor Weight ([5]; PLAP 4 mg/kg subcutaneously): 2.9 ± 0.4 g | Muscle Mass [5, 11]: 93 ± 9 mg | Muscle Protein [5, 11]: 13.3 ± 1.3 mg/100 mg of muscle weight | Lean Body Weight ([5]; total weight minus tumor weight, PLAP 4 mg/kg subcutaneously): 25.9 ± 2.8 g | Abdominal Fat Tissue ([5]; weight, PLAP 4 mg/kg subcutaneously): 0.66 ± 0.07 g | half-life time in human circulation [6]: about 7 days | Total Muscle Protein [1]: 13.20 ± 0.38 mg per 100 mg of muscle weight | L6 myoblast proliferation minus 0-time value (A540) (L6 myoblasts [4]; PLAP 25 nM, Myostatin 0.25 μg/ml): 0.325 ± 0.038 A540 | L6 myoblast proliferation minus 0-time value (A540) (L6 myoblasts [4]; PLAP 25 nM, Myostatin 1.0 μg/ml): 0.300 ± 0.023 A540 | L6 myoblast proliferation minus 0-time value (A540) (L6 myoblasts [4]; PLAP 25 nM, No Myostatin): 0.410 ± 0.025 A540 | L6 myoblast proliferation minus 0-time value (A540) (L6 myoblasts [4]; PLAP 100 nM, Myostatin 0.25 μg/ml): 0.430 ± 0.024 A540 | L6 myoblast proliferation minus 0-time value (A540) (L6 myoblasts [4]; PLAP 100 nM, Myostatin 1.0 μg/ml): 0.402 ± 0.027 A540 | L6 myoblast proliferation minus 0-time value (A540) (L6 myoblasts [4]; PLAP 100 nM, No Myostatin): 0.541 ± 0.022 A540 | L6 myoblast proliferation minus 0-time value (A540) (L6 myoblasts [4]; PLAP 200 nM, Myostatin 0.25 μg/ml): 0.542 ± 0.069 A540 | L6 myoblast proliferation minus 0-time value (A540) (L6 myoblasts [4]; PLAP 200 nM, Myostatin 1.0 μg/ml): 0.500 ± 0.033 A540 | L6 myoblast proliferation minus 0-time value (A540) (L6 myoblasts [4]; PLAP 200 nM, No Myostatin): 0.707 ± 0.032 A540 | ATP as substrate [7]: weak substrate | specific activity [8]: 685 Units per mg protein | L6 myoblast proliferation (A540) (minus 0-time value) (L6 myoblasts [3]): 0.267 ± 0.025 A540
